Consider three molecules from patent US20180214568A1.

One may read the Kd as the free concentration of one partner at which half of the binding sites on the other are occupied at equilibrium, for simple one-to-one binding. A high value points to a looser complex.

For experiment [1], the target named is CD56 on the surface of human neuroblastoma cells (human) (UniProt P13591). In words: cell-based or functional assay.
For experiment [2] the target is unchanged.
Experiment [3] concerns the target human CD56 whole ectodomain (residues 20-720) (human) (UniProt P13591). Kind of experiment: BIACORE, Fab on immobilised CD56 ectodomain.
The target is the same in experiment [4]. Kind of experiment: SPR (BIACORE X100), CD56 ectodomain immobilized, Fab in flow, 1:1 model. For orientation: In SPR one partner is held on a chip, and binding of the other changes the refractive index at the surface.

B1: m906 IgG1 (antibody, V domains shown)
VH: EVQLVQSGAEVKKPGSSVKVSCKASGGTFTGYYMHWVRQAPGQGLEWMGWINPNSGGTNYAQKFQGRVTMTRDTSISTAYMELSRLRSDDTAVYYCARDLSSGYSGYFDYWGQGTLVTVSS
VL: DVVMTQSPLSLPVTPGEPASISCRSSQSLLHSNGYNFLDWYLQKPGQSPQLLIYLGSNRASGVPDRFSGSGSGTDFTLKISRVEADDVGVYYCMQSLQTPWTFGHGTKVEIKR
Consider B1, for which, in experiment [1], the percent reduction in CD56 cell surface expression, Kelly cells, 50 nM m906 overnight stood at 93%; the percent reduction in CD56 cell surface expression, SKNAS cells, 50 nM m906 overnight was found to be 21%; the percent reduction in CD56 cell surface expression, other neuroblastoma cell lines, 50 nM m906 overnight is above 60%.

B2: m906PBD (antibody, V domains shown)
VH: EVQLVQSGAEVKKPGSSVKVSCKASGGTFTGYYMHWVRQAPGQGLEWMGWINPNSGGTNYAQKFQGRVTMTRDTSISTAYMELSRLRSDDTAVYYCARDLSSGYSGYFDYWGQGTLVTVSS
VL: DVVMTQSPLSLPVTPGEPASISCRSSQSLLHSNGYNFLDWYLQKPGQSPQLLIYLGSNRASGVPDRFSGSGSGTDFTLKISRVEADDVGVYYCMQSLQTPWTFGHGTKVEIKR
modifications: PBD-MC conjugated to cysteine residues of the reduced IgG (sites not given); PBD-MC (pyrrolobenzodiazepine dimer with maleimide) conjugated to cysteine residues of the reduced IgG
Take B2: in experiment [2], the IC50 (read off the curve), % survival of CHP134 cells, ADC alone was 0.01 nM. In addition, in experiment [1], the killing of IMR5 cells (cell viability, 4 days) was 5 pM.

B3: m906 Fab (Fab, V domains shown)
VH: EVQLVQSGAEVKKPGSSVKVSCKASGGTFTGYYMHWVRQAPGQGLEWMGWINPNSGGTNYAQKFQGRVTMTRDTSISTAYMELSRLRSDDTAVYYCARDLSSGYSGYFDYWGQGTLVTVSS
VL: DVVMTQSPLSLPVTPGEPASISCRSSQSLLHSNGYNFLDWYLQKPGQSPQLLIYLGSNRASGVPDRFSGSGSGTDFTLKISRVEADDVGVYYCMQSLQTPWTFGHGTKVEIKR
Consider B3, for which the values for the Kd in experiment [3] and in experiment [4] were 4.49 nM and 4.5 nM, respectively.
